Earlier results, collected in article PMC4122144.

How the values were obtained:
Settings in all cases: Not stated. Presumably ground-state bR, since the values are compared with calculations on the 1QHJ ground-state structure.
[1] = biological target: Arg82 (UniProt position 95, PIYWARYADWL)
[2] = biological target: Asp115 (UniProt position 128, ALVGADGIMIG)
[3] = biological target: Asp212 (UniProt position 225, LFMVLDVSAKV)
[4] = biological target: Asp85 (UniProt position 98, WARYADWLFTT)
[5] = biological target: Asp96 (UniProt position 109, PLLLLDLALLV)

## Bacteriorhodopsin (Halobacterium salinarum (not stated in the article; inferred))
[1]
  pKa: >13.8
[2]
  pKa: > 9.5
[3]
  pKa: < 2.5
[4]
  pKa: 2.6
[5]
  pKa: >12.0
